B1: humanized SW186 H1L1 (antibody, V domains shown)
VH: QVQLVQSGAEVKKPGSSVKVSCKASGVAFSSYWMNWVRQAPGQGLEWMGQIYPGDGDTNYNGKFKGRVTITADKSTSTAYMELSSLRSEDTAVYYCARGFIATVEETMDYWGQGTLVTVSS
VL: DIQMTQSPSSLSASVGDRVTITCRASQDISNYLNWYQQKPGKAPKLLIYYTSRLHSGVPSRFSGSGSGTDFTLTISSLQPEDFATYYCQQSHTLPWTFGGGTKLEIK
B2: humanized SW186 H3L4 (antibody, V domains shown)
VH: QVQLVQSGAEVKKPGSSVKVSCKASGVAFSSYWMNWVRQAPGQGLEWIGQIYPGDGDTNYNGKFKGRATITADKSTSTAYMELSSLRSEDTAVYFCARGFIATVEETMDYWGQGTLVTVSS
VL: DIQMTQSPSSLSASVGDRVTITCRASQDISNYLNWYQQKPGKTVKLLIYYTSRLHSGVPSRFSGSGSGTDYTLTISSLQPEDFATYFCQQSHTLPWTFGGGTKLEIK
B3: humanized SW186 H3L2 (antibody, V domains shown)
VH: QVQLVQSGAEVKKPGSSVKVSCKASGVAFSSYWMNWVRQAPGQGLEWIGQIYPGDGDTNYNGKFKGRATITADKSTSTAYMELSSLRSEDTAVYFCARGFIATVEETMDYWGQGTLVTVSS
VL: DIQMTQSPSSLSASVGDRVTITCRASQDISNYLNWYQQKPGKAPKLLIYYTSRLHSGVPSRFSGSGSGTDFTLTISSLQPEDFATYFCQQSHTLPWTFGGGTKLEIK
B4: humanized SW186 H3L3 (antibody, V domains shown)
VH: QVQLVQSGAEVKKPGSSVKVSCKASGVAFSSYWMNWVRQAPGQGLEWIGQIYPGDGDTNYNGKFKGRATITADKSTSTAYMELSSLRSEDTAVYFCARGFIATVEETMDYWGQGTLVTVSS
VL: DIQMTQSPSSLSASVGDRVTITCRASQDISNYLNWYQQKPGKAPKLLIYYTSRLHSGVPSRFSGSGSGTDYTLTISSLQPEDFATYFCQQSHTLPWTFGGGTKLEIK
B5: humanized SW186 H4L3 (antibody, V domains shown)
VH: QVQLVQSGAEVKKPGSSVKVSCKASGVAFSSYWMNWVKQAPGQGLEWIGQIYPGDGDTNYNGKFKGKATITADKSTSTAYMELSSLRSEDTAVYFCARGFIATVEETMDYWGQGTLVTVSS
VL: DIQMTQSPSSLSASVGDRVTITCRASQDISNYLNWYQQKPGKAPKLLIYYTSRLHSGVPSRFSGSGSGTDYTLTISSLQPEDFATYFCQQSHTLPWTFGGGTKLEIK
B6: humanized SW186 H2L4 (antibody, V domains shown)
VH: QVQLVQSGAEVKKPGSSVKVSCKASGVAFSSYWMNWVRQAPGQGLEWIGQIYPGDGDTNYNGKFKGRVTITADKSTSTAYMELSSLRSEDTAVYFCARGFIATVEETMDYWGQGTLVTVSS
VL: DIQMTQSPSSLSASVGDRVTITCRASQDISNYLNWYQQKPGKTVKLLIYYTSRLHSGVPSRFSGSGSGTDYTLTISSLQPEDFATYFCQQSHTLPWTFGGGTKLEIK
B7: humanized SW186 H1L3 (antibody, V domains shown)
VH: QVQLVQSGAEVKKPGSSVKVSCKASGVAFSSYWMNWVRQAPGQGLEWMGQIYPGDGDTNYNGKFKGRVTITADKSTSTAYMELSSLRSEDTAVYYCARGFIATVEETMDYWGQGTLVTVSS
VL: DIQMTQSPSSLSASVGDRVTITCRASQDISNYLNWYQQKPGKAPKLLIYYTSRLHSGVPSRFSGSGSGTDYTLTISSLQPEDFATYFCQQSHTLPWTFGGGTKLEIK
B8: humanized SW186 H3L4 (antibody, V domains shown)
VH: QVQLVQSGAEVKKPGSSVKVSCKASGVAFSSYWMNWVRQAPGQGLEWIGQIYPGDGDTNYNGKFKGRATITADKSTSTAYMELSSLRSEDTAVYFCARGFIATVEETMDYWGQGTLVTVSS
VL: DIQMTQSPSSLSASVGDRVTITCRASQDISNYLNWYQQKPGKTVKLLIYYTSRLHSGVPSRFSGSGSGTDYTLTISSLQPEDFATYFCQQSHTLPWTFGGGTKLEIK
B9: humanized SW186 H3L3 (antibody, V domains shown)
VH: QVQLVQSGAEVKKPGSSVKVSCKASGVAFSSYWMNWVRQAPGQGLEWIGQIYPGDGDTNYNGKFKGRATITADKSTSTAYMELSSLRSEDTAVYFCARGFIATVEETMDYWGQGTLVTVSS
VL: DIQMTQSPSSLSASVGDRVTITCRASQDISNYLNWYQQKPGKAPKLLIYYTSRLHSGVPSRFSGSGSGTDYTLTISSLQPEDFATYFCQQSHTLPWTFGGGTKLEIK
B10: humanized SW186 H4L1 (antibody, V domains shown)
VH: QVQLVQSGAEVKKPGSSVKVSCKASGVAFSSYWMNWVKQAPGQGLEWIGQIYPGDGDTNYNGKFKGKATITADKSTSTAYMELSSLRSEDTAVYFCARGFIATVEETMDYWGQGTLVTVSS
VL: DIQMTQSPSSLSASVGDRVTITCRASQDISNYLNWYQQKPGKAPKLLIYYTSRLHSGVPSRFSGSGSGTDFTLTISSLQPEDFATYYCQQSHTLPWTFGGGTKLEIK
B11: humanized SW186 H2L1 (antibody, V domains shown)
VH: QVQLVQSGAEVKKPGSSVKVSCKASGVAFSSYWMNWVRQAPGQGLEWIGQIYPGDGDTNYNGKFKGRVTITADKSTSTAYMELSSLRSEDTAVYFCARGFIATVEETMDYWGQGTLVTVSS
VL: DIQMTQSPSSLSASVGDRVTITCRASQDISNYLNWYQQKPGKAPKLLIYYTSRLHSGVPSRFSGSGSGTDFTLTISSLQPEDFATYYCQQSHTLPWTFGGGTKLEIK
B12: humanized SW186 H3L1 (antibody, V domains shown)
VH: QVQLVQSGAEVKKPGSSVKVSCKASGVAFSSYWMNWVRQAPGQGLEWIGQIYPGDGDTNYNGKFKGRATITADKSTSTAYMELSSLRSEDTAVYFCARGFIATVEETMDYWGQGTLVTVSS
VL: DIQMTQSPSSLSASVGDRVTITCRASQDISNYLNWYQQKPGKAPKLLIYYTSRLHSGVPSRFSGSGSGTDFTLTISSLQPEDFATYYCQQSHTLPWTFGGGTKLEIK
B13: humanized SW186 H4L2 (antibody, V domains shown)
VH: QVQLVQSGAEVKKPGSSVKVSCKASGVAFSSYWMNWVKQAPGQGLEWIGQIYPGDGDTNYNGKFKGKATITADKSTSTAYMELSSLRSEDTAVYFCARGFIATVEETMDYWGQGTLVTVSS
VL: DIQMTQSPSSLSASVGDRVTITCRASQDISNYLNWYQQKPGKAPKLLIYYTSRLHSGVPSRFSGSGSGTDFTLTISSLQPEDFATYFCQQSHTLPWTFGGGTKLEIK
B14: humanized SW186 H3L2 (antibody, V domains shown)
VH: QVQLVQSGAEVKKPGSSVKVSCKASGVAFSSYWMNWVRQAPGQGLEWIGQIYPGDGDTNYNGKFKGRATITADKSTSTAYMELSSLRSEDTAVYFCARGFIATVEETMDYWGQGTLVTVSS
VL: DIQMTQSPSSLSASVGDRVTITCRASQDISNYLNWYQQKPGKAPKLLIYYTSRLHSGVPSRFSGSGSGTDFTLTISSLQPEDFATYFCQQSHTLPWTFGGGTKLEIK
B15: humanized SW186 H2L3 (antibody, V domains shown)
VH: QVQLVQSGAEVKKPGSSVKVSCKASGVAFSSYWMNWVRQAPGQGLEWIGQIYPGDGDTNYNGKFKGRVTITADKSTSTAYMELSSLRSEDTAVYFCARGFIATVEETMDYWGQGTLVTVSS
VL: DIQMTQSPSSLSASVGDRVTITCRASQDISNYLNWYQQKPGKAPKLLIYYTSRLHSGVPSRFSGSGSGTDYTLTISSLQPEDFATYFCQQSHTLPWTFGGGTKLEIK
B16: humanized SW186 H1L4 (antibody, V domains shown)
VH: QVQLVQSGAEVKKPGSSVKVSCKASGVAFSSYWMNWVRQAPGQGLEWMGQIYPGDGDTNYNGKFKGRVTITADKSTSTAYMELSSLRSEDTAVYYCARGFIATVEETMDYWGQGTLVTVSS
VL: DIQMTQSPSSLSASVGDRVTITCRASQDISNYLNWYQQKPGKTVKLLIYYTSRLHSGVPSRFSGSGSGTDYTLTISSLQPEDFATYFCQQSHTLPWTFGGGTKLEIK
B17: humanized SW186 H1L2 (antibody, V domains shown)
VH: QVQLVQSGAEVKKPGSSVKVSCKASGVAFSSYWMNWVRQAPGQGLEWMGQIYPGDGDTNYNGKFKGRVTITADKSTSTAYMELSSLRSEDTAVYYCARGFIATVEETMDYWGQGTLVTVSS
VL: DIQMTQSPSSLSASVGDRVTITCRASQDISNYLNWYQQKPGKAPKLLIYYTSRLHSGVPSRFSGSGSGTDFTLTISSLQPEDFATYFCQQSHTLPWTFGGGTKLEIK
B18: humanized SW186 H4L4 (antibody, V domains shown)
VH: QVQLVQSGAEVKKPGSSVKVSCKASGVAFSSYWMNWVKQAPGQGLEWIGQIYPGDGDTNYNGKFKGKATITADKSTSTAYMELSSLRSEDTAVYFCARGFIATVEETMDYWGQGTLVTVSS
VL: DIQMTQSPSSLSASVGDRVTITCRASQDISNYLNWYQQKPGKTVKLLIYYTSRLHSGVPSRFSGSGSGTDYTLTISSLQPEDFATYFCQQSHTLPWTFGGGTKLEIK
B19: humanized SW186 H2L2 (antibody, V domains shown)
VH: QVQLVQSGAEVKKPGSSVKVSCKASGVAFSSYWMNWVRQAPGQGLEWIGQIYPGDGDTNYNGKFKGRVTITADKSTSTAYMELSSLRSEDTAVYFCARGFIATVEETMDYWGQGTLVTVSS
VL: DIQMTQSPSSLSASVGDRVTITCRASQDISNYLNWYQQKPGKAPKLLIYYTSRLHSGVPSRFSGSGSGTDFTLTISSLQPEDFATYFCQQSHTLPWTFGGGTKLEIK
B20: SW186 (murine variable regions, murine-human chimeric) (Fab, V domains shown)
VH: QVQLQQSGAELVKPGASVKISCKASGVAFSSYWMNWVKQRPGKGLEWIGQIYPGDGDTNYNGKFKGKATLTADKSSSTAYMQLSSLSSEDSAVYFCARGFIATVEETMDYWGQGTSVTVSS
VL: DIQMTQTTSSLSASLGDRVTISCRASQDISNYLNWYQQKPDGTVKLLIYYTSRLHSGVPSRFSGSGSGTDYSLTISNLEQEDIATYFCQQSHTLPWTFGGGTKLEIK

Each binder was assayed against SARS-CoV-2 spike ectodomain (S-ecto), Wuhan-hu-1, 2P (SARS-CoV-2, Wuhan-hu-1, UniProt P0DTC2, 2P mutation at residues 986 and 987, biotinylated (EZ-link NHS-sulfo-LC-Biotin) for the BLI assay) (assay: BLI). Details: both partners purified.

Binder | Kd
B1 | 10 nM
B2 | 2.6 nM
B3 | 6.09 nM
B4 | 5.82 nM

Each binder was assayed against SARS-CoV-2 spike ectodomain (S-ecto), Wuhan-hu-1 strain, 2P (SARS-CoV-2, Wuhan-hu-1, UniProt P0DTC2, 2P mutation at residues 986 and 987 | 2P mutation at residues 986 and 987, biotin (NHS-sulfo-LC-Biotin, EZ-link biotinylation kit)) (assay: BLI). Details: both partners purified.

Binder | Kd | koff | kon
B5 | 2.4 nM | 0.000424 s⁻¹ | 177000 M⁻¹ s⁻¹
B6 | 3.14 nM | 0.000603 s⁻¹ | 192000 M⁻¹ s⁻¹
B7 | 4.37 nM | 0.000598 s⁻¹ | 137000 M⁻¹ s⁻¹
B8 | 2.6 nM | 0.000469 s⁻¹ | 181000 M⁻¹ s⁻¹
B9 | 5.82 nM | 0.000761 s⁻¹ | 131000 M⁻¹ s⁻¹
B10 | 4.14 nM | 0.00077 s⁻¹ | 186000 M⁻¹ s⁻¹
B11 | 18.1 nM | 0.00078 s⁻¹ | 43100 M⁻¹ s⁻¹
B12 | 6.69 nM | 0.00119 s⁻¹ | 178000 M⁻¹ s⁻¹
B13 | 5.86 nM | 0.000953 s⁻¹ | 163000 M⁻¹ s⁻¹
B14 | 6.09 nM | 0.00122 s⁻¹ | 201000 M⁻¹ s⁻¹
B15 | 3.72 nM | 0.000713 s⁻¹ | 191000 M⁻¹ s⁻¹
B16 | 5.03 nM | 0.000519 s⁻¹ | 103000 M⁻¹ s⁻¹
B17 | 26.2 nM | 0.00126 s⁻¹ | 48200 M⁻¹ s⁻¹
B18 | 1.57 nM | 0.000338 s⁻¹ | 216000 M⁻¹ s⁻¹
B19 | 12.6 nM | 0.00151 s⁻¹ | 120000 M⁻¹ s⁻¹
B20 | 1.09 nM | 0.000128 s⁻¹ | 117000 M⁻¹ s⁻¹
